Experimental data reported in paper doi:10.1101/2024.05.31.596772, “CAMSAP3 Forms Dimers via its α-helix Domain that Directly Stabilize Non-centrosomal Microtubule Minus Ends” (bioRxiv, 2024).

B1: GFP-CAMSAP3 (natural protein, UniProt Q80VC9 1-1252, looked up)
chain: MVEAAPAGSGPLRRTFLVPEIKSLDQYDFSRAKAAASLAWVLRAAFGGAEHVPPELWEPFYTDQYAQEHVKPPVTRLLLSAELYCRAWRQALPQLEPSPSPSALLALLARRGTVPSLPEHPVREADLKHQPILMGAHLAVIDALMVAFSFEWTKTLPGPLALSSLEHKLLFWVDTTVRRLQEKTEQEAAQRASPAAPLDGASPAQPSIRYRKDRAIARRAPCFPNVTTLQDLASGAALAATIHCYCPQLLRLEEVCLKDPMSVADSLYNLQLVQDFCASHLPRGCPLSLEDLLYVPPPLKVNLVVLLAEMYMCFEVLKPDFVQAKDLPDGHAVSPRNTETVPSQNNSGSSSPVFNFRHPLLSPGGPQSPLRGSTGSLKSSPSMSHMEALGKAWNRQLSRPLSQAVSFSTPFGLDSDVDVVMGDPVLLRSVSSDSLGPPRPVSTSSRNSAQPAPESGDLPTIEEALQIIHSAEPRLLPDGAADGSFYLHSPEGLSKPPLSPYPPEGASKPLSDRLNKAPIYISHPENPSKSSPCSTGEILKPPPPSEGSPKAVASSPAANNSEVKMTSFAERKKQLVKAEAESGLGSPTSTPVAPEALSSEMSELGARLEEKRRAIEAQKRRIEAIFAKHRQRLGKSAFLQVQPREAAGEAEEEAELGSVPGGERPAGEGQGEPSLRHKSVTFSPDLGPVPPEGLGDYNRAVSKLSAALSSLQRDMQRLTDQQQRLLAPPEAPGPAPPPAAWVIPGPATGPKAASPSPARRAPAARRSPGPGPSPTPRSPKHARPAELKLAPLTRVLTPPHDVDSLPHLRKFSPSQVPVQTRSSILLSEGTPPEEPTTKPALIEIPLASLGEPAADEEGDGSPPGAEDSLEEEASSEGEPRSGLGFFYKDEDKPEDEMAQKRASLLERQQRRVEEARRRKQWQEAEKEQKREEAARLAQEAPGLAFTTPVVASAAPVATLAPTTRAMAPAEEEVGPRRGDFTRLEYERRAQLKLMDDLDKVLRPRASGTGGPGRGGRRATRPRSGCCDDSALARSPARGLLGSRLSKVYSQSTLSLSTVANEAPNNLGVKRPTSRAPSPSGLMSPSRLPGSRERDWENGSNASSPASVPEYTGPRLYKEPSAKSNKFIIHNALSHCCLAGKVNEPQKNRILEEIEKSKANHFLILFRDSSCQFRALYTLSGETEELSRLAGYGPRTVTPAMVEGIYKYNSDRKRFTQIPAKTMSMSVDAFTIQGHLWQSKKPTTPKKGGGTPK
notes: CAMSAP3 (Nezha), full length; also called Nezha; CAMSAP3 full-length; source: Sf9 cells, purified
B2: GFP-CAMSAP3 944F (domain or fragment, UniProt Q80VC9 944-1252, looked up)
chain: AFTTPVVASAAPVATLAPTTRAMAPAEEEVGPRRGDFTRLEYERRAQLKLMDDLDKVLRPRASGTGGPGRGGRRATRPRSGCCDDSALARSPARGLLGSRLSKVYSQSTLSLSTVANEAPNNLGVKRPTSRAPSPSGLMSPSRLPGSRERDWENGSNASSPASVPEYTGPRLYKEPSAKSNKFIIHNALSHCCLAGKVNEPQKNRILEEIEKSKANHFLILFRDSSCQFRALYTLSGETEELSRLAGYGPRTVTPAMVEGIYKYNSDRKRFTQIPAKTMSMSVDAFTIQGHLWQSKKPTTPKKGGGTPK
notes: source: Sf9 cells, purified

Biological target: the molecule itself
Assay: SEC-MALS; static light detection of the purified GFP-tagged protein; dimer from the mass of the primary peak

Protein | stoichiometry N
B1 | 2
B2 | 2
